Results on one substance are retold here after publication doi:10.1101/2021.08.16.456468.

In this experiment the target is DnaD^7A, purified (B. subtilis) (UniProt P39787). As to the kind of experiment: SEC.

For orientation: stoichiometry N means the number of molecules, sites or subunits per partner or assembly.

In turn, “DnaD^7A, purified (from UniProt P39787 1-232) (natural protein)” showed a stoichiometry N of 4.
